{"source": "the DeepSol protein solubility set", "data": [{"assay": "soluble on expression in E. coli; label from the status in PepcDB or PDB records", "values": [{"sequence": "SPRIAEKMLRKRHGQAAFAAYVEKREQTRAAARAYDQRALQGDLEIIYNFGQDLIDEHAIEVSAEQVTVPGFSQPLVYKKDARFSDMLD", "soluble on expression in E. coli": "not soluble"}, {"sequence": "MSLEHFDDKSQLKRNGFYFSYNVDKENIEHWISAILFQVLKDKEDIVILSLGVDTLVGDSLGPLVGSILKRNGIPNVYGTLDRTVNASNIIKILDEIHERFKNPYILVVDAAVTAENNINDIVLRNGGFTPGFGVYRQLPTVGDFSLVGVVNKEDEREHNLIELLKKCRFDEVLKLARIISKILVLTFARMNKGDKEGHHHHHH", "soluble on expression in E. coli": "not soluble"}, {"sequence": "MAGASETYTHTLTDVPIDIKYDSDDYFISGYSYGADVYMSSVNRVKLDSEINEDTRKFKVVADLTNMKPGTHKVPLKVVNLPSGVNATVSPTTITVTMGKKKTLEHHHHHH", "soluble on expression in E. coli": "soluble"}, {"sequence": "LWLASDLHLGPATPATAEAFLGLLQAAADEASALLLPGDIFDAWIGDDVIRAAPPWLAAVLQGIRAAAGRIPVYLGRGNRDFLIGQELADALGAHLLPEPVLLETDYGRILLTHGDEYCTDDSAYQQFRAMVRNPQWQAQFLAMSIPERLAMAEQARGESQAANQAKSMEIMDVNPASVEAALREADVDVLVHGHTHRPARHVL", "soluble on expression in E. coli": "not soluble"}, {"sequence": "MLPSAQVARLKPDPFPPSLSPIPHGAVTFAALAPCHNLPIFSSRQMLRDSLTYSHTSPTMSPQIANRFEASLDAQDIARISLFTLESGVILRDVPVAYKSWGRMNVSRDNCVIVCHTLTSSAHVTSWWPTLFGQGRAFDTSRYFIICLNYLGSPFGSAGPCSPDPDAEGQRPYGAKFPRTTIRDDVRIHRQVLDRLGVRQIAAVVGASMGGMHTLEWAFFGPEYVRKIVPIATSCRQSGWCAAWFETQRQCIYDDPKYLDGEYDVDDQPVRGLETARKIANLTYKSKPAMDERFHMAPGVQAGRNISSQDAKKEINGTDSGNSHRAGQPIEAVSSYLRYQAQKFAASFDANCYIAMTLKFDTHDISRGRAGSIPEALAMITQPALIICARSDGLYSFDEHVEMGRSIPNSRLCVVDTNEGHDFFVMEADKVNDAVRGFLDQSLM", "soluble on expression in E. coli": "soluble"}, {"sequence": "MGSDKIHHHHHHMLKNIPIPSPLSPVEGILIKRKTLERYFSIERLEQQAHQRAKRILREAEEEAKTLRMYAYQEGYEQGMIDALQQVAAYLTDNQTMAWKWMEKIQIYARELFSAAVDHPETLLTVLDEWLRDFDKPEGQLFLTLPVNAKKDHQKLMVLLMENWPGTFNLKYHQEQRFIMSCGDQIAEFSPEQFVETAVGVIKHHLDELPQDCRTISDNAINALIDEWKTKTQAEVIR", "soluble on expression in E. coli": "not soluble"}, {"sequence": "MHLNNLNNFNNLENNGEYHCSGPIIKKPFRHIALTVPSSDITNFNEIFYVEPQYIAQAIRLTNTFQGAIDPLTLNFNFEKALQIANGLPNAGVTGTINQSVIHQTIEVSVMISQIKEIIRSVLGLVINSANFWNSVVSAITNTFTNLEPQVDENWIVWRNLSATQTSYFYKILFSIQNEDTGRFMAILPIAFEITVDVQKQQLLFITIKDSARYEVKMKALTVVQALDSYNAPIIDVFNVRNYSLHRPNHNILQNLNVNPIKS", "soluble on expression in E. coli": "soluble"}, {"sequence": "MFRRPDDDDDDYSGRKVIKPKPIAEKYAKKLGSEFSTGKTFVTGSDKSQKDFYGSQQVRNDVMKSSDSGGAPLTEDEKNKLSAKILKAEMKGDTDLVKKLKRKLESGISGDDEPPKSKSKEVTMMRRDREGNILPASSRRSDSDRHGEGSSRMRREYEKSQDLDSMVREEKTGTAGDQLRLFERSLIKSSKIRRHDDESVDDIAEMQKGKKKSDEKDKKRKEKESIKEHKRIERSFDDCSRCIDSSRLKKHNIIAVGINTYLAVVEWDGLDDEHLIIVPTQHCSSTIQLDENVWDEMRLWRKGLVAVWKSQNRDCIFFEMSRHVDSNPHVFIECVPVEQEIGDMASIYFKKAINECEGEYMDNKKLIETKDLRRQIPKGFSYFAVDFGLSNGFAHVIESHDHFPSTFATEIIAGMLDLPPKKWRKRETDEMSKQKSRAENFKKLWEPVDWTKRLKNDSTK", "soluble on expression in E. coli": "soluble"}, {"sequence": "MGSDKIHHHHHHMMQIYLVGGAVRDQLLGLPIKDRDWLVVGSTAEELLSQGYQQVGKDFPVFLNPNTREEYALARTERKSGTGYTGFICDFNPDITLEQDLMRRDLTINAIAQDMAGQYHDPYNGIADLKKGILRHISPAFAEDPLRVLRVARFAARYHQLGFKIAPNTLALMKKIANNGELRQLSPERVWQETEKALHEQDPQVYFAILQKIDALKVLCPEISVFNSDSIQYRSDMTDFVHAMPILKQTTLLTEKTDYHKSAVRFAALCHDVGKALSTANIPPYSHDNKITSIAYLRNVCQRFKVPNYVQELAELTCQYHSHIHHALALHTKTILTLFNKLDVWRKPKRFEELMLVCLADSLTQTEMNYTDYPQYKFLLCLYQAALAVDVQQIISEGFQHKAIRVELDRRREIAIQIKKQQFIEQNLT", "soluble on expression in E. coli": "not soluble"}, {"sequence": "MSLKNPCNAEFQNFCIHGECKYIEHLEAVTCKCQQEYFGERCGEKSMKTHSMIDSSEGHHHHHH", "soluble on expression in E. coli": "not soluble"}, {"sequence": "MKTLFAFFILIFSNIVYAAPKAELWAYWQASNDSNTASVSHQAWQSILDRNLVQVGENALFRYAEVTKEDKTLLNDYLDQLSKLDPREFNRQEQYAYWVNLYNALTVKLILDNYPVASITKLGGLFSFGPWDEKVFTVAGQTLTLNDIEHRILRPIWKDPRTHYAVNCASLGCPNLQSQAFTAQNTERLLSNAAHTFINSSKGATLNNDTLILSSIYDWFAVDFGNKKELLIHLAQYRPELSLYSGKIDYQYDWKLNDTKEKKLEHHHHHH", "soluble on expression in E. coli": "soluble"}, {"sequence": "MKIRDLLKARRGPLFSFEFFPPKDPEGEEALFRTLEELKAFRPAFVSITYGAMGSTRERSVAWAQRIQSLGLNPLAHLTVAGQSRKEVAEVLHRFVESGVENLLALRGDPPRGERVFRPHPEGFRYAAELVALIRERYGDRVSVGGAAYPEGHPESESLEADLRHFKAKVEAGLDFAITQLFFNNAHYFGFLERARRAGIGIPILPGIMPVTSYRQLRRFTEVCGASIPGPLLAKLERHQDDPKAVLEIGVEHAVRQVAELLEAGVEGVHFYTLNKSPATRMVLERLGLRPASGQP", "soluble on expression in E. coli": "soluble"}, {"sequence": "MGSSHHHHHHGSSNILIINGAKKFAHSNGQLNDTLTEVADGTLRDLGHDVRIVRADSDYDVKAEVQNFLWADVVIWQMPGWWMGAPWTVKKYIDDVFTEGHGTLYASDGRTRKDPSKKYGSGGLVQGKKYMLSLTWNAPMEAFTEKDQFFHGVGVDGVYLPFHKANQFLGMEPLPTFIANDVIKMPDVPRYTEEYRKHLVEIFG", "soluble on expression in E. coli": "soluble"}, {"sequence": "HSSGLVPRGSHMAIIFPGQGAQKVGMAQDLFNNNDQATEILTSAAKTLDFDILETMFTDEEGKLGETENTQPALLTHSSALLAALKNLNPDFTMGHSLGEYSSLVAADVLSFEDAVKIVRKRGQLMAQAFPTGVGSMAAVLGLDFDKVDEICKSLSSDDKIIEPANINCPGQIVVSGHKALIDELVEKGKSLGAKRVMPLAVSGPFHSSLMKVIEEDFSSYINQFEWRDAKFPVVQNVNAQGETDKEVIKSNMVKQLYSPVQFINSTEWLIDQGVDHFIEIGPGKVLSGLIKKINRDVKLTSIQTLEDVKGWNEND", "soluble on expression in E. coli": "soluble"}, {"sequence": "MSRFQTLTPASLSREAFIEAFADIYEHSPWVAEKAYDLGIDDSLNDIEGLHQRMADILLSASREAQLALINAHPDLAGKAAIRGELTASSTSEQAGAGIHECSAEEFARFTELNDAYKARFGFPFIKAVKGSNRHQILAAFEERIQHSADEEFATALAEINKIALFRLQQLLEHHHHHH", "soluble on expression in E. coli": "soluble"}, {"sequence": "MGSDKIHHHHHHMGKKNYGKSVKTRLLNLMNETGYKYMYLLARYFNERLLYRVSVSQYKDNFLLKGGSLLYAMNGLEARPTVDVDFMADRISRDRDFLARVFQEILGIVCDEDGVSFDAGSIKIEPITVEKKYPGTRFYFTAHMDTIAYNMSVDIGFGDVVIPHPTTIDFPLLLPDIPSVNIQAYSLETVIAEKFHTMIDRDVLNSRMKDFFDCYQLLTKRNLNDDALYDAIEATFDNRGLAYNPDLQLFTDSFATDRARISRWKAFLRKIQWKEALDFDTVMKAIRDRLQPMAEKYWIKLSK", "soluble on expression in E. coli": "not soluble"}, {"sequence": "GEAPADRLKALVDAAVQPVMKANDIPGLAVAISLKGEPHYFSYGLASKEDGRRVTPETLFEIGSVSKTFTATLAGYALTQDKMRLDDRASQHWPALQGSRFDGISLLDLATYTAGGLPLQFPDSVQKDQAQIRDYYRQWQPTYAPGSQRLYSNPSIGLFGYLAARSLGQPFERLMEQQVFPALGLEQTHLDVPEAALAQYAQGYGKDDRPLRVGPGPLDAEGYGVKTSAADLLRFVDANLHPERLDRPWAQALDATHRGYYKVGDMTQGLGWEAYDWPISLKRLQAGNSTPMALQPHRIARLPAPQALEGQRLLNKTGSTNGFGAYVAFVPGRDLGLVILANRNYPNAERVKIAYAILSGLEQQGKVPLKR", "soluble on expression in E. coli": "soluble"}, {"sequence": "LEKNDLVYMQRAFELNDKVAKDIMIDRTQLVVIDITSTVKEALNVYLQERFSRLPVVADNDKDKVLGYVYNYDLTRQQQVDSSVRVDKLIRDISTTPETTPITQVLQQMIKKRTPIVVVVDEYGGTSGIITDKDIYEEL", "soluble on expression in E. coli": "not soluble"}, {"sequence": "MSLQPALGVLVASSQPLDQYVVRHPDFFADASPEHARTAPDQPLILFDHIRCAAFELPFIASEPFGPIDPLVFLEVLAESEVIHQEGDRWEWIADSYPATAVSLRSVADGNFVVVDKSDGKQQIIAEVDYSAAALTLYEGAIHMVQSRPYQVERLDWAGRKAYVTRTHVDYYTDSIDYTKLKVLDRFDGGVAGRGDSHHGEVHVVRRVSGYKKIRYYTHENIGYGPVNLPDQELHTTAVWWQLPQATLGKAFEGHHHHHH", "soluble on expression in E. coli": "soluble"}, {"sequence": "MSQPLLAVNGLMMRFGGLLAVNNVSLELREREIVSLIGPNGAGKTTVFNCLTGFYKPTGGTITLRERHLEGLPGQQIARMGVVRTFQHVRLFREMTVIENLLVAQHQQLKTGLFSGLLKTPAFRRAQSEALDRAATWLERIGLLEHANRQASNLAYGDQRRLEIARCMVTQPEILMLDEPAAGLNPKETKELDELIAELRNHHNTTILLIEHDMKLVMGISDRIYVVNQGTPLANGTPEEIRNNPDVIRAYLGEA", "soluble on expression in E. coli": "soluble"}, {"sequence": "MMQEETFYSVRMRASMNGSHEDGGKHISGGERLIPFHEMKHTVNALLEKGLSHSRGKPDFMQIQFEEVHESIKTIQPLPVHTNEVSCPEEGQKLARLLLEKEGVSRDVIEKAYEQIPEWSDVRGAVLFDIHTGKRMDQTKEKGVRVSRMDWPDANFEKWALHSHVPAHSRIKEALALASKVSRHPAVVAELCWSDDPDYITGYVAGKKMGYQRITAMKEYGTEEGCRVFFIDGSNDVNTYIHDLEKQPILIEWEEDHDS", "soluble on expression in E. coli": "not soluble"}, {"sequence": "IKTTKALQLNDEQQVAVDQITQAVDQAATTTFLLEGVTGSGKTEVYLQSMAAALVQGKTALMLVPEISLTPQMVQRVKGRFGKAVAVLHSGLSSGEKYDEWRRIQRGEAQVVVGARSAVFAPLKNLGLIVMDEEHESTYKQDDAPRYHARQVALWRSRYHNCPVVLGSATPSLETRARAEKG", "soluble on expression in E. coli": "not soluble"}, {"sequence": "MGSDKIHHHHHHMNIQDYPDRDMLAIDLANHLAGELEATLFTHDSATLAVAGGTTPGPVFDVLCAADLDWHRVMVLPTDERCVPQDHSRANARLIAERLLVNRAASARYLPLYLPGAEPEDCLAEVEALLTPALPLSVLVLGMGEDMHTASLFAGMPGLAAALDADAPALAVARPETQPENRITLTAPVLNGALSKHLIIYGAAKRKALERAMSMHPEEAPIAAVLDGITVHWAE", "soluble on expression in E. coli": "not soluble"}, {"sequence": "STVKRKPVFVKVEQLKPGTTGHTLTVKVIEANIVVPVTRKTRPASSLSRPSQPSRIVECLIGDETGCILFTARNDQVDLMKPGATVILRNSRIDMFKGTMRLGVDKWGRIEATGAASFTVKEDNNLSLVEYE", "soluble on expression in E. coli": "soluble"}, {"sequence": "MGHHHHHHSHMIDKATGILLYGLASRLRDTRRLSFLVSYIASKKIHTEPQLSAALEYVRSHPLDPIDTVDFERECGVGVIVTPEQIEEAVEAAINRHRPQLLVERYHFNMGLLMGEARAVLKWADGKMIKNEVDMQVLHLLGPKLEADLE", "soluble on expression in E. coli": "soluble"}]}]}
